This is an account of results in PMC11784022, “An unusual activity of mycobacterial MutT1 Nudix hydrolase domain as a protein phosphatase regulates nucleoside diphosphate kinase function” (Journal of Bacteriology, 2024).

The data set deals with the molecule itself. As to the kind of experiment: SDS-PAGE of samples not heated in sample buffer; MsmNDK-Pi (1 µg) in kinase buffer (50 mM Tris-HCl pH 8.0, 50 mM KCl, 10 mM MgCl2), 30°C, mixed with SDS-PAGE sample buffer without heating, 12% SDS-PAGE, Coomassie stain.

B1: Mycobacterium smegmatis nucleoside diphosphate kinase (MsmNDK) (enzyme, Mycobacterium smegmatis mc2155, UniProt O85501 1-139, looked up)
chain: MTERTLVLIKPDGVKRQLVGEILSRIERKGLTLAALELKNVSDDLARQHYAEHADKPFFGSLLEFITSGPLVAAIVEGPRAVAAFRQIAGGTDPVEKAVPGTIRGDFALITQDNLVHGSDSPESAAREIALWFPGEATA
notes: Nucleoside diphosphate kinase of Mycobacterium smegmatis mc2155, locus MSMEG_4627; ORF amplified from genomic DNA and cloned into pProEx-Htb between NcoI and HindIII; also called MsmNDK-Pi; source: E. coli M15, purified (Ni-NTA, Superdex-75)
Consider B1, for which the binding result is reported as “binds”.
